Data reported in patent US20260069656A1, “Nutritive Polypeptides and Formulations Thereof, and Methods of Production and Use Thereof” (Axcella Health Inc., priority 2013, published 2026).
Numbering of substitutions follows the chain as printed.

B1: SEQID-00001 (HEK293): nutritive polypeptide (protein, listed as Gallus gallus)
chain: MGSIGAASMEFCFDVFKELKVHHANENIFYCPIAIMSALAMVYLGAKDSTRTQINKVVRFDKLPGFGDSIEAQCGTSVNVHSSLRDILNQITKPNDVYSFSLASRLYAEERYPILPEYLQCVKELYRGGLEPINFQTAADQARELINSWVESQTNGIIRNVLQPSSVDSQTAMVLVNAIVFKGLWEKAFKDEDTQAMPFRVTEQESKPVQMMYQIGLFRVASMASEKMKILELPFASGTMSMLVLLPDEVSGLEQLESIINFEKLTEWTSSNVMEERKIKVYLPRMKMEEKYNLTSVLMAMGITDVFSSSANLSGISSAESLKISQAVHAAHAEINEAGREVVGSAEAGVDAASVSEEFRADHPFLFCIKHIATNAVLFFGRCVSP
modifications: expressed in HEK293
B2: SEQID-00287: nutritive polypeptide (protein, listed as Saccharomyces cerevisiae)
chain: LVLGALLDTSHKFRNLDKDLCEKCAKCISMIGVLDVTKHEFKRTTYSENEVYDLNDSVQTIKFLIWVINDILV
modifications: strain ATCC 204508 / S288c
notes: nutritive polypeptide
B3: SEQID-00302: nutritive polypeptide (protein)
chain: MAKKTVANLSASELSGKKVLVRADFNVPLDNGSISDDTRIRAALPTIQDLTSKGAKVILSSHFGRPQGQVVESMRLTPVAARLSELLGKTVKKCDDCIGEEVAVAVGAMSDGDVLLLENVRFHAAEEKNDPEFAKQLASVADLYVNDAFGTAHRAHASTEGVTKYLSPCVAGYLIEKELQFLQGAIESPQRPLAAIIGGSKVSSKIGVIEALLDKCDKLLLGGGMIFTFYKARGLSVGNSLVEEDKLELAKSLEAKAKEKGVTMLLPTDVVLADKFAADADSQTVSVEAIPDGWMGLDIGPDSVKVFQEALGDCKTVLWNGPMGVFEFEKFAAGTRAIAQTLAELTSTGTTTIIGGGDSVAAVEQLNLGEKMSHISTGGGASLELLEGKQLPGIVALDDA
modifications: Arthrospira platensis C1
notes: nutritive polypeptide
B4: SEQID-00241: nutritive polypeptide (protein, listed as Bos taurus)
chain: SELKKDIDDLELTLAKVEKEKHATENKVKNLTEEMAGLDETIAKLTKEKKALQEAHQQTLDDLQAEEDKVNTLTKAKTKLEQQVDDLEGSLEQEKKLRMDLERAKRKLEGDLKLA
B5: SEQID-00510: nutritive polypeptide naturally produced in Turkey, recombinantly expressed in E. coli (protein)
chain: MVPIAEKMAEKQEEPSNTQNGEPDNAEEGEGKKKKKVKREDLPPFEIVTGERLPAIFFKFQFRNVEYSSGRNKTFLCYVVETQGKESTTSRGYLEDEHAASHAEIAFFNTILPKCESSLRYNITWYVSSSPCVTCADRISETLRKNKNLRLTIMVGRLFMWEEPEMQAALKKMKSAGCKLRIMKPQDFEYVWQNFVEQEEGEEAKAFVPWEDIQENFQYYEEKLAEILQ
modifications: Meleagris gallopavo
notes: nutritive polypeptide naturally produced in Turkey, recombinantly expressed in E. coli
B6: SEQID-00098: nutritive polypeptide (protein, listed as Lactococcus lactis)
chain: MAVFEKVQDIIVDELGKEKEEVTLETSFEELDADSLDLFQIINDIEDEFDVEVDTEADMKTVADLVKYVENNK
B7: SEQID-00226: nutritive polypeptide (protein, listed as Bos taurus)
chain: QLQALQAQLTDTKKKVDDDLGTIENLEEAKKKLLKDVEVLSQRLEEKALAYDKLEKTKTRLQQELDDLLVDLDHQRQIVSNLEKKQKKFDQLLAEEKNIS
B8: SEQID-00305: nutritive polypeptide (protein, listed as Bos taurus)
chain: MPHQYPALTPEQKKELCDIAHRIVAPGKGILAADESTGSIAKRLQSIGTENTEENRRFYRQLLLTADDRVNPCIGGVILFHETLYQKADDGRPFPQVIKAKGGVVGIKVDKGVVPLAGTNGETTTQGLDGLSERCAQYKKDGADFAKWRCVLKIGEHTPSSLAIMENANVLARYASICQQNGIVPIVEPEILPDGDHDLKRCQYVTEKVLAAVYKALSDHHIYLEGTLLKPNMVTPGHACTQKYSHEEIAMATVTALRRTVPPAVPGITFLSGGQSEEEASINLNAINKCPLLKPWALTFSYGRALQASALKAWGGKKENLKAAQEEYVKRALANSLACQGKYTPSGKAGAAASESLFISNHAY
B9: SEQID-00690: engineered secreted variant of SEQID-00407 enriched in essential amino acids which retains enzymatic activity (protein, listed as Bacillus subtilis)
chain: ETANKSNELTAPSIKSGTILHAWNWSFNTLKHNMKDIHDAGYTAIQTSPINQVKEGNQGDKSMSNWYWLYQPTSYQIGNRYLGTEQEFKEMCAAAEEYGIKVIVDAVINHTTSDLVGVLSNEVKSIPNWTHGNTQIKNWSDRWDVTQNSLLGLYDWNTQNTQVQSYLKRFLDRALNDGADGFRFDAAKHIELPDDGSYGSQFWPNITRVVMEFQYGEILQDSASRDAAYANYMDVTASNYGHSIRSALKNRNLGVSNIVMYILRVSADKLVTWVESHDTYANDDEESTWMSDDDIRLGWAVIASRSGSTPLFFSRPEGGGNGVRFPGKSQIGDRGSALFEDQAITAVNRFHNVMAGLPKRLSNPNGNNQIFMNQRGSHGVVLANAGSSSVSINTATKLPDGRYDNKAGAGSFQVNDGKLTGTINARSVAVLYPDDIAKAPHVFLENYKTGVTHSFNDQLTITMRADANTTKAVYQINNGPETAFKDGDQFTIGKGDPFGKTYTIMLKGTNSDGVTRTEKYSFVKRDPASAKTIGYQNPNHWSQVNAYIYKHDGSRVIELTGSWPGKPMTKNADGIYTLTLPADTDTTNAKVIFNNGSAQVPGQNQPGFDYVLNGLYNDSGLSGSLPH
modifications: strain 168
B10: SEQID-00220: nutritive polypeptide (protein, listed as Bos taurus)
chain: DTKKKVDDDLGTIENLEEAKKKLLKDVEVLSQRLEEKALAYDKLEKTKTRLQQELDDLLVDLDHQ
B11: SEQID-00672 (BS): nutritive polypeptide (protein, listed as Saccharomyces cerevisiae)
chain: MSSSESIRMVLIGPPGAGKGTQAPNLQERFHAAHLATGDMLRSQIAKGTQLGLEAKKIMDQGGLVSDDIMVNMIKDELTNNPACKNGFILDGFPRTIPQAEKLDQMLKEQGTPLEKAIELKVDDELLVARITGRLIHPASGRSYHKIFNPPKEDMKDDVTGEALVQRSDDNADALKKRLAAYHAQTEPIVDFYKKTGIWAGVDASQPPATVWADILNKLGKD
modifications: strain ATCC 204508 / S288c
B12: SEQID-00678 (BS): nutritive polypeptide (protein, listed as Saccharomyces cerevisiae)
chain: B11 chain with R42K
modifications: strain ATCC 204508 / S288c
B13: SEQID-00100: nutritive polypeptide (protein, listed as Lactobacillus acidophilus)
chain: MSEEEIFNKIKDLIADNFEVDKDSITENTNFMNDLDADSIDLVEFILQLEDEFGAEIPDDEAEKIKTVGDAVSYIKSHQG

Tests used:
[1] = Intact half-life during simulated gastric fluid (SGF) digestion; conditions: for SGF Half-life (t½): SGF pH 1.5, pepsin:polypeptide 1:20 w/w, 37° C., produced in E. coli unless otherwise noted
[2] = pH solubility screen in Citric Acid / Dibasic Sodium Phosphate buffers; type: physicochemical; conditions: for pH Range where Protein is >80% detected as Soluble and A650 <1 OD: Low: lower pH of range; for pH Range where Protein is >80% detected as Soluble and A650 <1 OD: High: upper pH of range
Method: pH Solubility. […] Protein was either lyophilized and then resuspended in buffer cocktail mixtures, or concentrated and then spiked into buffer cocktail mixtures at a final protein concentration of 5 to 30 mg/ml. As a control, protein was also dissolved in a solution of 8 M urea. Protein solutions were shaken for 10 min at room temperature. Turbidity of proteins was determined by measuring the absorbance of protein solutions at 650 nm. The protein solution was then centrifuged for 10 min at 1100×g to pellet undissolved or precipitated protein. The soluble protein fraction (supernatant) was sampled and protein concentration was measured by one or more of the following methods: Coomassie Plus Protein Assay (Pierce), Chip electrophoresis, gel electrophoresis, and/or absorbance at 280 nm. The pH range over which select proteins remained greater than 80% soluble as determined by Bradford and the A650 value are listed in Table E31C.

[3] = Thermostability, ProteoStat Thermal Shift Stability Kit, temperature of aggregation; type: physicochemical
Method: Thermostability. The thermostability of proteins in a buffer cocktail of Citric Acid and Dibasic Sodium Phosphate over a pH range of 2.8 to 7.1 (preparation described above in Table E31B) was determined using the ProteoStat® Thermal Shift Stability Kit (Enzo Life Sciences) according to the manufacturer's standard protocol. Briefly, protein solutions (˜10 mg/ml) containing 1× ProteoStat TS Detection Reagent were heated from 25° C. to 95° C. at a rate of 0.5° C. per 30 sec using a real-time PCR (rtPCR) thermocycler (BioRad) equipped with a plate reader (SynergyMx, Biotek) while monitoring the fluorescence with a Texas Red filter.

[4] = heated 25° C. to 95° C., NS = protein not soluble

Row | Molecule | SGF Half-life (t½) [1] | pH Range where Protein is >80% detected as Soluble and A650 <1 OD: Low [2] | pH Range where Protein is >80% detected as Soluble and A650 <1 OD: High [2] | Tagg (pH 7.1) ([3]; heated from 25° C. to 95° C.) | other results
1 | B1 | 516 s | – | – | – | –
2 | B2 | 180 s | 6.2 | 9.1 | – | pH Range where Protein is >80% detected as Soluble and A650 <1 OD: Other [2]: 2.6
3 | B3 | 12 s | – | – | 46 | –
4 | B4 | 18 s | 4.3 | 9.1 | >95 | –
5 | B5 | 18 s | 6.5 | 7.1 | – | Half-life ([1]; purified proteins, chip electrophoresis, SGF): 18 s; pH Range where Protein is >80% detected as Soluble and A650 <1 OD: Other [2]: 2.8
6 | B6 | 24 s | – | – | – | Tagg (pH 7.1) [3, 4]: >95
7 | B7 | 42 s | 2.6 | 9.1 | >95 | –
8 | B8 | 12 s | – | – | 48 | –
9 | B9 | 264 s | – | – | – | –
10 | B10 | 30 s | – | – | >95 | –
11 | B11 | 18 s | – | – | – | –
12 | B12 | 12 s | – | – | – | –
13 | B13 | 120 s | 4.3 | 7.1 | – | Tagg pH 2.8 ([3]; pH 2.8, NS = protein not soluble): 95; Tagg pH 3.7 ([3]; pH 3.7, NS = protein not soluble): 95; Tagg pH 3.9 ([3]; pH 3.9, NS = protein not soluble): 95; Tagg pH 4.3 ([3]; pH 4.3, NS = protein not soluble): 83; Tagg pH 4.6 ([3]; pH 4.6, NS = protein not soluble): 84; Tagg pH 5.0 ([3]; pH 5.0, NS = protein not soluble): 95; Tagg pH 5.6 ([3]; pH 5.6, NS = protein not soluble): 95; Tagg pH 6.0 ([3]; pH 6.0, NS = protein not soluble): 95; Tagg pH 6.5 ([3]; pH 6.5, NS = protein not soluble): 95; Tagg (pH 7.1) [3, 4]: >95
